Measured values as given in patent US20240158455A1, “MULTIPLE SCLEROSIS ASSOCIATED AUTOANTIGENS, AND USE THEREOF IN THERAPY AND DIAGNOSIS” (NEOGAP Therapeutics AB, priority 2017, published 2024).

Tests used:
[1] = biological target: HLA DRB5 01:01 (Homo sapiens, UniProt P01903+Q30154); assay: Competitive binding assay of overlapping peptides to HLA; conditions: competitive binding to HLA DRB5 01:01, compared with reference H1N1 influenza peptide
[2] = biological target: HLA DRB5 01:01; assay: competitive HLA binding assay (legend: - No binding)

## Aa 02-16-SEQ ID NO: 1 (VEAFCATWKLTNSQN; listed as Homo sapiens) [FABP7 #1]
[1]
  Binding affinity: +

## Aa 102-116-SEQ ID NO: 1 (ETNFVREIKDGKMVM; listed as Homo sapiens) [FABP7 #21]
[1]
  Binding affinity: +

## Aa 37-51-SEQ ID NO: 1 (TKPTVIISQEGDKVV; listed as Homo sapiens) [FABP7 #8]
[1]
  Binding affinity: −

## Aa 64-69 + 96-104-SEQ ID NO: 2 [PROK2 #16]
[1]
  Binding affinity: +

## Aa 63-77-SEQ ID NO: 2 (KLGDSCHPLTRKNNF; listed as Homo sapiens) [PROK2 #8]
[1]
  Binding affinity: −

## Aa 118-132-SEQ ID NO: 6 (LTFGDVVAVRHYEKA; listed as Homo sapiens) [FABP7 #24]
[1]
  Binding affinity: +

## Aa 82-96-SEQ ID NO: 1 (KSVVSLDGDKLVHIQ; listed as Homo sapiens) [FABP7 #17]
[1]
  Binding affinity: −

## Aa 131-145-SEQ ID NO: 1 (SPHTSHLLPSSSLLL; listed as Homo sapiens) [FABP7 #30]
[1]
  Binding affinity: +

## Aa 42-56-SEQ ID NO: 1 (IISQEGDKVVIRTLS; listed as Homo sapiens) [FABP7 #9]
[1]
  Binding affinity: −

## Aa 32-46-SEQ ID NO: 1 (QVGNVTKPTVIISQE; listed as Homo sapiens) [FABP7 #7]
[1]
  Binding affinity: −

## Aa 68-82-SEQ ID NO: 2 (CHPLTRKNNFGNGRQ; listed as Homo sapiens) [PROK2 #9]
[1]
  Binding affinity: +

## Aa 152-166-SEQ ID NO: 1 (SFFNNTSLARFFNYM; listed as Homo sapiens) [FABP7 #34]
[1]
  Binding affinity: +

## Aa 52-66-SEQ ID NO: 1 (IRTLSTFKNTEISFQ; listed as Homo sapiens) [FABP7 #11]
[1]
  Binding affinity: −

## Aa 92-106-SEQ ID NO: 1 (LVHIQKWDGKETNFV; listed as Homo sapiens) [FABP7 #19]
[1]
  Binding affinity: −

## Aa 100-114-SEQ ID NO: 2 (GRRMHHTCPCLPGLA; listed as Homo sapiens) [PROK2 #18]
[1]
  Binding affinity: −

## Aa 111-125-SEQ ID NO: 1 (DGKMVMVSNDNSPFF; listed as Homo sapiens) [FABP7 #26]
[1]
  Binding affinity: +

## Aa 59-69 + 96-99-SEQ ID NO: 2 [PROK2 #15]
[1]
  Binding affinity: −

## Aa 67-81-SEQ ID NO: 1 (LGEEFDETTADDRNC; listed as Homo sapiens) [FABP7 #14]
[1]
  Binding affinity: −

## Aa 83-97-SEQ ID NO: 2 (ERRKRKRSKRKKEVP; listed as Homo sapiens) [PROK2 #12]
[1]
  Binding affinity: −

## Aa 105-119-SEQ ID NO: 2 (HTCPCLPGLACLRTS; listed as Homo sapiens) [PROK2 #19]
[1]
  Binding affinity: −

## Aa 107-121-SEQ ID NO: 6 (REIKDGKMVMTLTFG; listed as Homo sapiens) [FABP7 #22]
[1]
  Binding affinity: −

## Aa 110-124-SEQ ID NO: 2 (LPGLACLRTSFNRFI; listed as Homo sapiens) [PROK2 #20]
[1]
  Binding affinity: ++

## Aa 73-87-SEQ ID NO: 2 (RKNNFGNGRQERRKR; listed as Homo sapiens) [PROK2 #10]
[1]
  Binding affinity: +

## Aa 93-107-SEQ ID NO: 2 (KKEVPFFGRRMHHTC; listed as Homo sapiens) [PROK2 #14]
[1]
  Binding affinity: +

## Aa 115-129-SEQ ID NO: 2 (CLRTSFNRFICLAQK; listed as Homo sapiens) [PROK2 #21]
[1]
  Binding affinity: +

## Aa 106-120-SEQ ID NO: 1 (VREIKDGKMVMVSND; listed as Homo sapiens) [FABP7 #25]
[1]
  Binding affinity: −

## Aa 97-111-SEQ ID NO: 1 (KWDGKETNFVREIKD; listed as Homo sapiens) [FABP7 #20]
[1]
  Binding affinity: −

## Aa 69 + 96-109-SEQ ID NO: 2 [PROK2 #17]
[1]
  Binding affinity: −

## Aa 43-57-SEQ ID NO: 2 (GMCCAVSIWVKSIRI; listed as Homo sapiens) [PROK2 #4]
[1]
  Binding affinity: +

## Aa 116-130-SEQ ID NO: 1 (MVSNDNSPFFLVFFS; listed as Homo sapiens) [FABP7 #27]
[1]
  Binding affinity: −

## Aa 17-31-SEQ ID NO: 1 (FDEYMKALGVGFATR; listed as Homo sapiens) [FABP7 #4]
[1]
  Binding affinity: ++

## Aa 22-36-SEQ ID NO: 1 (KALGVGFATRQVGNV; listed as Homo sapiens) [FABP7 #5]
[1]
  Binding affinity: −

## Aa 38-52-SEQ ID NO: 2 (SQCGGGMCCAVSIWV; listed as Homo sapiens) [PROK2 #3]
[1]
  Binding affinity: −

## Aa 77-91-SEQ ID NO: 1 (DDRNCKSVVSLDGDK; listed as Homo sapiens) [FABP7 #16]
[1]
  Binding affinity: −

## Aa 47-61-SEQ ID NO: 1 (GDKVVIRTLSTFKNT; listed as Homo sapiens) [FABP7 #10]
[1]
  Binding affinity: +

## Aa 33-47-SEQ ID NO: 2 (ACDKDSQCGGGMCCA; listed as Homo sapiens) [PROK2 #2]
[1]
  Binding affinity: −

## Aa 146-160-SEQ ID NO: 1 (PFFLLPSFFNNTSLA; listed as Homo sapiens) [FABP7 #33]
[1]
  Binding affinity: ++

## Aa 141-155-SEQ ID NO: 1 (SSLLLPFFLLPSFFN; listed as Homo sapiens) [FABP7 #32]
[1]
  Binding affinity: −

## Aa 27-41-SEQ ID NO: 1 (GFATRQVGNVTKPTV; listed as Homo sapiens) [FABP7 #6]
[1]
  Binding affinity: +

## Aa 62-76-SEQ ID NO: 1 (EISFQLGEEFDETTA; listed as Homo sapiens) [FABP7 #13]
[1]
  Binding affinity: −

## Aa 87-101-SEQ ID NO: 1 (LDGDKLVHIQKWDGK; listed as Homo sapiens) [FABP7 #18]
[1]
  Binding affinity: −

## Aa 136-150-SEQ ID NO: 1 (HLLPSSSLLLPFFLL; listed as Homo sapiens) [FABP7 #31]
[1]
  Binding affinity: −

## Aa 48-62-SEQ ID NO: 2 (VSIWVKSIRICTPMG; listed as Homo sapiens) [PROK2 #5]
[1]
  Binding affinity: +

## Aa 07-21-SEQ ID NO: 1 (ATWKLTNSQNFDEYM; listed as Homo sapiens) [FABP7 #2]
[1]
  Binding affinity: +

## Aa 72-86-SEQ ID NO: 1 (DETTADDRNCKSVVS; listed as Homo sapiens) [FABP7 #15]
[1]
  Binding affinity: −

## Aa 112-126-SEQ ID NO: 6 (GKMVMTLTFGDVVAV; listed as Homo sapiens) [FABP7 #23]
[1]
  Binding affinity: −

## Aa 53-67-SEQ ID NO: 2 (KSIRICTPMGKLGDS; listed as Homo sapiens) [PROK2 #6]
[1]
  Binding affinity: +++

## Aa 78-92-SEQ ID NO: 2 (GNGRQERRKRKRSKR; listed as Homo sapiens) [PROK2 #11]
[1]
  Binding affinity: −

## Aa 57-71-SEQ ID NO: 1 (TFKNTEISFQLGEEF; listed as Homo sapiens) [FABP7 #12]
[1]
  Binding affinity: −

## Aa 28-42-SEQ ID NO: 2 (AVITGACDKDSQCGG; listed as Homo sapiens) [PROK2 #1]
[1]
  Binding affinity: −

## Aa 58-72-SEQ ID NO: 2 (CTPMGKLGDSCHPLT; listed as Homo sapiens) [PROK2 #7]
[1]
  Binding affinity: −

## Aa 88-102-SEQ ID NO: 2 (KRSKRKKEVPFFGRR; listed as Homo sapiens) [PROK2 #13]
[1]
  Binding affinity: −

## Aa 121-135-SEQ ID NO: 1 (NSPFFLVFFSSPHTS; listed as Homo sapiens) [FABP7 #28]
[1]
  Binding affinity: +++

## Aa 12-26-SEQ ID NO: 1 (TNSQNFDEYMKALGV; listed as Homo sapiens) [FABP7 #3]
[1]
  Binding affinity: −

## Aa 126-140-SEQ ID NO: 1 (LVFFSSPHTSHLLPS; listed as Homo sapiens) [FABP7 #29]
[1]
  Binding affinity: +

B1: FABP7 peptide #23 (Aa 112-126 of SEQ ID NO: 6) (peptide)
peptide: GKMVMTLTFGDVVAV
notes: FABP7 isoform 1 peptide; also called Pool 4 FABP7
[2]
  binding result: no binding

## LDGDKLVHIQKWDGK (also called Pool 3 FABP7) [FABP7 peptide #18 (Aa 87-101 of SEQ ID NO: 1)]
[2]
  binding result: no binding

## TNSQNFDEYMKALGV (also called Pool 1 FABP7) [FABP7 peptide #3 (Aa 12-26 of SEQ ID NO: 1)]
[2]
  binding result: no binding

## DETTADDRNCKSVVS (also called Pool 3 FABP7) [FABP7 peptide #15 (Aa 72-86 of SEQ ID NO: 1)]
[2]
  binding result: no binding

## LVHIQKWDGKETNFV (also called Pool 4 FABP7) [FABP7 peptide #19 (Aa 92-106 of SEQ ID NO: 1)]
[2]
  binding result: no binding

B2: FABP7 peptide #22 (Aa 107-121 of SEQ ID NO: 6) (peptide)
peptide: REIKDGKMVMTLTFG
notes: as for B1
[2]
  binding result: no binding

## DDRNCKSVVSLDGDK (also called Pool 3 FABP7) [FABP7 peptide #16 (Aa 77-91 of SEQ ID NO: 1)]
[2]
  binding result: no binding

## KWDGKETNFVREIKD (also called Pool 4 FABP7) [FABP7 peptide #20 (Aa 97-111 of SEQ ID NO: 1)]
[2]
  binding result: no binding

## KSVVSLDGDKLVHIQ (also called Pool 3 FABP7) [FABP7 peptide #17 (Aa 82-96 of SEQ ID NO: 1)]
[2]
  binding result: no binding
